Measured values reported in patent US20050153395A1 (CHILDREN S HOSPITAL, published 2005).
Residue numbers refer to the chain shown, from its start. Names and notes keep the numbering of the source.

B1: CTGF4 mutant M1 (I257A, R258A, T259A, P260A) (ligand)
chain: EENIKKGKKCAAAAKISKPIKFELSGCTSMKTYRAKFCGVCTDGRCCTPHRTTTLPVEFKCPDGEVMKKNMMFIKTCACHYNCPGDNDIFESLYYRKMYGDMA
B2: CTGF4 mutant M4 (E269A, L270A, S271A, G272A) (ligand)
chain: B1 chain with A11I, A12R, A13T, A14P, E23A, L24A, S25A, G26A
B3: CTGF4 mutant M3 (P265A, I266A, K267A, F268A) (ligand)
chain: B1 chain with A11I, A12R, A13T, A14P, P19A, I20A, K21A, F22A

target: integrin αvβ3 on activated rat hepatic stellate cells (HSC) (rat, UniProt Q8R2H2 26-787); experiment: cell-based or functional assay
Sequence (Q8R2H2 26-787): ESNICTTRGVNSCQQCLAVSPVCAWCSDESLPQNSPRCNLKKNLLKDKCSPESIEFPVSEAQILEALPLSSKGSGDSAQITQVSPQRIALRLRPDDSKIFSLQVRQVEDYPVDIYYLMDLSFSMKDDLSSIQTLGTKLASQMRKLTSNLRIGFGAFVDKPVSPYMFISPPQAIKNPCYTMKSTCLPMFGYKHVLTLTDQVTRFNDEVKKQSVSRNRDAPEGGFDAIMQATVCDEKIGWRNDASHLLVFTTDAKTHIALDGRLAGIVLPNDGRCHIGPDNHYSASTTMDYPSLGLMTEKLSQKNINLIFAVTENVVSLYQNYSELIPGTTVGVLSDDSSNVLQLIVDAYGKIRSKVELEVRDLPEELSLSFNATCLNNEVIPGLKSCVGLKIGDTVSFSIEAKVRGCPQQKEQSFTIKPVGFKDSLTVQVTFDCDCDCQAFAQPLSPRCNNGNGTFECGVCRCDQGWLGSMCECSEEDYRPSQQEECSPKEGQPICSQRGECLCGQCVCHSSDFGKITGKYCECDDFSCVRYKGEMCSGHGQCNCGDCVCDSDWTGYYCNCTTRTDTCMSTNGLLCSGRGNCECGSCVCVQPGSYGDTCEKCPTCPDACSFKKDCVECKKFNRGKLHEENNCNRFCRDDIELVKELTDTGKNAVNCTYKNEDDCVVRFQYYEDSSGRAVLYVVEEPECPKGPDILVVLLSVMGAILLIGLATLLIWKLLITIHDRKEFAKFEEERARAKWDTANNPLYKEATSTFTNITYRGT

HSC adhesion, level relative to wild-type CTGF4 [%] | Binder
33 | B1
46 | B2
80 | B3
